# The DeepSol protein solubility set
# Assay: soluble on expression in E. coli; label from the status in PepcDB or PDB records
row,Sequence,soluble on expression in E. coli
1,MSLKPTVWHHLRLCPHGHPDETIDDAAIAVDETGTIVWLGAVSALPHGYAHWRREDLHGAWVTPGLVDCHTHLVYGGTRADEFAQRLAGVSYEEIARQGGGIVSTVRATRAADETTLFVQAAARLQPLLAEGVTAIEIKSGYGLDLASERKMLRVARQLGERFPVTVYTTFLGAHALPPEYAGRADAYIDEVCDRMLPALADEGLVDAVDVFCERIGFSLAQTERVFEAATRRGLPVKLHAEQLSNAGGTALAARYRALSADHLEFLDEAGIEAMKAAGTVAVLLPGAYYFIRETQLPPIELLRKHGVPIALATDHNPGTSPLESLLLTLNMGCTLFRMTVPEVLQGVTCHAAAALGRADRHGALEVGRQADFAAWSVGSLAELAYWIGRPLCEQVVRGGTTVFRRMNGEGHHHHHH,soluble
2,MAHHHHHHMRSTPHGPPPHPRTSSVRQDAITYPYAYAAPGRQAPSAGYEHDDNTTAEAGPTRRCVPGRGNRAMPASNTGPYPSDVNRTLSYPEPAPARTAAPAVAIMQPSSPFEQDHTPVVYTVQNTTTDTHRHETEYGGVLTIRTTTVTRTITERLVASDEDDDSSENGEVYLDDARNEASVPSLHR,not soluble
3,MNFLLILTLISIIVRSRQENASMDPCNDFYDYVCTNDTRSITKLNFASLFDDREILKPNISFPNNGTYIALDQILEPDRLMKWYMTVKSLDTATVDLEYFFETHYEYISKKNDSEKFSFAVETLENVNLTLTNIFYNSLYANIKVLNQLNLPAAEENKFLHHISNLLKNNTIEEIWSSSLSNKSKKVLDEELNNSKVFFGLLDYNNVTMLEETKLVYETEYYRLKSLLSSDDLDTEIAEKILRLGAIDTATKYLAKRIPGYEPEFLFSAFASNMENEAFKHNSAIYAGIVTRSDLQQPMLAIADTVSVLAHELMHFVYPSGTELLTPNVTKAAKKCTQDEVKRMGDSDVVKPIDGWFSKKVTHEDLANIMGLRMVMKMVARKSASEEQLKNALETLLSGLCIQGKPKNSILPHHHPFEISINTAVRQYPLFSSLYGCRLGDRMFAEAEQFCKPLGGEVNLEDYKIKNDTEDIGGFFTYIMDTANAFNFSFRN,not soluble
4,SNAWGLSVERSTYFLAPADRHYLADYARQAEDAWRREGAAGAERFRKELSAKEDTWVALVGPHLESLGSTPLSAEESSHLTFMRKLDWPMSRRLQDELPYVSIEFPGHPEQGRLVIQLPERLLPG,soluble
5,NIENSSLERIANILNSKLKGLTIEQINLEVINNIKKDLREYGHIFDCIMPNLYDILREADSTEVYKEGTMNIFNYPEFKDIEKAKEFLSVIDDRRILDTLFNASGGVTVNIGNENSIKEARDFSVVSSVYKYNGRPLGTIGIIGPTRIPYSKVIKVIMEVVDQINNNLDKMNNS,not soluble
6,MAHTPTMLAAAAPFMPEATGVDPALDALLAGLQAHPARIDPKYLYDALGSSLFAAITQLPEYYPTRCEAEIFATHLEAIARHTGPVRTLIDLGAGDCAKAERLLPCLRPQRYVPIDISTDFLGQAVARVRRAHPWLDVLPLGRDLNAGLDLPEAIDAQGRLFFYPGSSIGNLDPDAALALLASLRAQAGVSGGLLIGVDRVKARAIVEPAYDDALHLTGAFNLNLLRHVNSVLGSDFDVRDWTHVALYNEPRSRMEMHLQARSDIRVRWPGGQRRFQADERIHTENSYKYTIERFVDLLRRAGYGDIRYWSDARDWFSVFSARA,soluble
7,MSAVLKKNKPFSILLMGTDTGALGRSDVGRTDTLMVATINPTKETAYLTSIPRDTRVTVGSGVNASVQKINAAYTIGGSKTAVKTVENLLDIPIDFYAIVNMGGLEKMVDAVGGVDVTPPLTFHYGAANVTKGKKTHLNGKQALAYSRMRHEDPLGDYGRQKRQRQVLQKMVVKAAGLSSITRYQTILKSLNGNLKTDLTFDDLMQIRAKYGDASHHIKSETLQGQDAMIDGLSYQVPTTSELKKVSNHIRKTLELANTTKFTTDADTDTTGSTAYGSSDNSGYGYLEHHHHHH,soluble
8,MEERLNRVKQQLQQSSYKLTPQREATVRVLIENEKDHLSAEDVYLKVKDKAPEIGLATVYRTLELLAELKVVDKINFGDGVARFDLRKEGAKHFHHHLVCMECGRVDEIDEDLLPEVENRVENEFNFKILDHRLTFHGVCETCQAKGKG,not soluble
9,NPVENYIDEVLNEVLVVPNINSSNPTTSNSAPALDAAETGHTSSVQPEDVIETRYVQTSQTRDEMSLESFLGRSGCIHESKLEVTLANYNKENFTVWAINLQEMAQIRRKFELFTYTRFDSEITLVPCISALSQDIGHITMQYMYVPPGAPVPNSRDDYAWQSGTNASVFWQHGQAYPRFSLPFLSVASAYYMFYDGYDEQDQNYGTANTNNMGSLCSRIVTEKHIHKVHIMTRIYHKAKHVKAWCPRPPRALEYTRAHRTNFKIEDRSIQTAIVTRPIITTAGPSDMY,soluble
10,MGSDKIHHHHHHMKKHLNTLFVTTQGAYLSKEGETVVVKVDREVRLRVPVHTLGGIVCFGNIGCSPYLMGFCAEKSVCISFLSERGRFLARVQGPVSGNVLLRREQYRRADDPEFSAIMARYVLTGKIANCRTVLQRALRDHQEKINADSVRQAVDHLGRCLTSLGREKSLDNLRGIEGDAAHRYFSVFNELILMQKDAFIFDERNRRPPLDPMNCLLSFAYTLLVHDIRSALEAVGLDPAVGYLHRDRPGRPGLALDIMEEFRPFIVDRLVLSLVNLRKVQAKGFKKSESGAVQMDDDTRRTLLVSYQERKQEEMLHPFLGERTTFGLLFHVQAMLLARYLRGDLDGYPPFIYR,not soluble
11,MSQTVHFQGNPVTVANVIPQAGSKAQAFTLVAKDLSDVSLSQYAGKRKVLNIFPSIDTGVCAASVRKFNQLATEVENTVVLCVSADLPFAQSRFCGAEGLSNVITLSTLRNNEFLKNYGVEIVDGPLKGLAARAVIVLDENDNVIFSQLVDEITHEPDYDAALNVLKA,not soluble
12,MGSDKIHHHHHHMTAQRPNRLINESSPYLLQHARNPVDWHPWGEEAFALARSEDKPVFLSIGYSTCHWCHVMAHESFEDEAVAALLNEAFINVKVDREDRPDIDSIYMAACQMLTGSGGWPLTIVMTPDGRPFFAATYIPRLSRGGRTGMLELVPRIRDIWRKQRADVTASADSVAEHMRRHAEGLLRPSSGGAPDDTTVRQAVDTLCQRYDARHGGFGSAPKFPAPHSLLLLLRHAHRTQDAARRAQLTGMVSHTLEAMRLGGIFDHAGYGFHRYSTDKEWLLPHFEKMLYDQAMHVLAYTRGWQLTGRPLFRRTAEEIMMYVMRDLTSPQGAFYAAEDADSDAPPHFAAMGLPHRGEGFFYLFTLQEIRGLLSREDALLAEKIWNLQEEGN,not soluble
13,GPGSRVRDKKDMDASELELRRVQGSLNKLTDKNFDAVVEEALSPDLVLNPLVLKGAVDIIFNKAMAEPVFSGIYAQLCQRIKVYEQDLVAEAAENPTSELGQLMAAVQAGDEDQKNVNGRVRNALVKRCQEFHDSFVKQPPPRNAEAEEQLRKRNMANIKFVGELYMRSLISHRVILAVCSTALVLGFIPSPKLVTTDADLEMMVSLMNVIGKRFDENAGMALNHVPKDAAAAAHPHDTIWRALNSSMNDPRFSRRIRFLIQNLLEWRNDGWKPKESPAQGSSGGSADDSNNTT,not soluble
14,GSHMSDGLPNKKRKRRVLFTKAQTYELERRFRQQRYLSAPEREHLTSLIRLTPTQVKIWFQNHRYKTKRAQNEKGYEGHP,soluble
15,MFQNLLENSKKFWIVLEPYGKFKKMLLRDLRGETHRGETRRGETRRGETHRGETHRGETHRGETHRGETHRGETHRGETYRGETHRGETHRGETHRGKTQNFGGKFKFSVKNILAGNLNFLKKIFWREI,not soluble
16,MEKSKPNVVFVLGGPGSGKGTQCANIVRDFGWVHLSAGDLLRQEQQSGSKDGEMIATMIKNGEIVPSIVTVKLLKNAIDANQGKNFLVDGFPRNEENNNSWEENMKDFVDTKFVLFFDCPEEVMTQRLLKRGESSGRSDDNIESIKKRFNTFNVQTKLVIDHYNKFDKVKIIPANRDVNEVYNDVENLFKSMGF,soluble
17,MGNQQCNWYGTLYPLCVTTTNGWGWEDQRSCIARSTCAAQPAPFGIVGSG,soluble
18,MQPQKNVTNKIAIHATTATVWDALVNPAKTKVYMFGCETVSDWKVGSELLWRGQHEGEDMVFVKGKILAIKPNKLLTYTVIDPFASYPDIPENYLNVTYKLEEQGPDTILTVTQDGFESAADGEKRYQDVNNKGEGWNPILVQIKALVESIQNLEHHHHHH,soluble
